Legend:
[1] = biological target: Stefin B construct (C3S, with glutamate polymorph at position 31) (human) (UniProt P04080); assay: NMR (2D 1H15N HSQC amide peak intensities); apparent ratio of monomer to dimer from peaks of Q71, L73 and E76; pH 6.0, 0% TFE; 200 uM 15N protein (monomer equivalents), 100 mM NaCl, 25°C; dimer to monomers; the paper says the two species never reach equilibrium
[2] = biological target: Stefin B construct (C3S, with glutamate polymorph at position 31) (human) (UniProt P04080); assay: NMR (2D 1H15N HSQC amide peak intensities); apparent ratio of monomer to dimer from peaks of Q71, L73 and E76; fibrillization conditions, pH 4.7 and 10% TFE, 15 mM sodium acetate, 25°C; dimer to monomers
[3] = biological target: P79S stefin B variant (human) (UniProt P04080); assay: SEC; KW-803 column (Shodex), HPLC with UV detection; 15 mM sodium acetate, 150 mM NaCl, 1 mM NaN3, pH lowered to 4.7; tetramer to dimers and monomers
[4] = biological target: P79S stefin B variant (human) (UniProt P04080); assay: SEC; KW-803 column (Shodex), HPLC with UV detection; 50 mM sodium phosphate, 100 mM NaCl, pH 7, 1 mM NaN3

ratio of monomer to dimer (monomer:dimer) [1] | ratio of monomer to dimer (monomer:dimer) [2] | stoichiometry N [3] | stoichiometry N [4] | Substance
1 | 2 |  |  | Stefin B construct (C3S, with glutamate polymorph at position 31) (from UniProt P04080 4-98) (natural protein)
 |  | 2 | 4 | P79S stefin B variant (from UniProt P04080 1-98) (natural protein)

Source: PMC3469841
